Assay results published in patent US20260116991A1 (HAINAN SIMCERE ZAIMING PHARMACEUTICAL, published 2026).
Blank lines part the entries; values can stand above or below the binder they belong to.

How the values were obtained:
[1] = target: T1, polypeptide GC3pep (human); experiment: ELISA, GC3pep coated, antibody 1 nM;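 further: bound antibody detected with an HRP-conjugated secondary antibody and TMB substrate, reaction stopped with HCl, after 2 h binding at 37 °C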
T1 construct: also called membrane proximal polypeptide GC3pep
T1 peptide: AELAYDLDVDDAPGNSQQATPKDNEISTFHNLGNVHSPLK

[2] = target: T1, polypeptide GC3pep; experiment: ELISA, GC3pep coated, antibody 10 nM;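 further: antibody bound to the coated peptide for 2 h at 37 °C, detected through an HRP-conjugated secondary antibody with TMB colour development stopped by acid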
Protocol: (§1) The plate was sealed with a plastic film and incubated at 4° C. overnight, washed twice with PBS the next day, and a blocking solution [PBS+2% (w/w) BSA] was added for blocking at room temperature for 2 h. […] After incubation at 37° C. for 2 h, the plate was washed 3 times with PBS. A horseradish peroxidase (HRP)-labeled secondary antibody (purchased from Merck, Cat. No. AP113P) was added for incubation at 37° C. for 1 h, and the plate was washed 5 times with PBS. A TMB substrate was added at 50 μL/well for incubation at room temperature for 10 min, then a stop solution (1.0M HCl) was added at 50 μL/well.

[3] = target: T1, polypeptide GC3pep; experiment: ELISA, GC3pep coated, antibody 0.1 nM;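 further: antibody allowed to bind the coated plate 2 h at 37 °C, then detected via HRP-conjugated secondary antibody and TMB development for 10 min, stopped with HCl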
Protocol: as §1

[4] = target: T1, polypeptide GC3pep; experiment: ELISA, GC3pep coated, antibody 100 nM;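 further: detection with an HRP-conjugated secondary antibody and TMB substrate, color reaction stopped with HCl before absorbance reading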
Protocol: as §1

[5] = target: T1, polypeptide GC3pep; experiment: ELISA, GC3pep coated, antibody 0.01 nM;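 further: bound antibody detected with an HRP-conjugated secondary antibody and TMB substrate, color reaction stopped with HCl before reading absorbance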
Protocol: as §1

[6] = target: T1, polypeptide GC3pep; experiment: ELISA, GC3pep coated, antibody 0.001 nM
[7] = target: T1, polypeptide GC3pep; experiment: ELISA, GC3pep coated, antibody 0.0001 nM

B1: F1.41.17 (antibody, human IgG1, kappa, V domains shown)
VH: EVQLVESGGDSVKPGGSLKLSCAASGFTFSSYGMSWVRQTPDKRLEWVATINSGGSYTYYQDSVKGRFTISRDNAKNTLYLQMSSLKSEDTAIYYCVRHHYGSSYDYFDYWGQGTTLTVSS
VL: DIVMTQAAPSVPVMPGESVSISCRSSKSLLHSNGNTHLYWFLQRPGQSPQLLIYRMSNLASGVPDRFSGSGSGTAFTLRISRVEAEDVGVYYCMQHLEYPLTFGAGTKLELKR
notes: human-murine chimeric antibody
OD450 nm [1]: 0.05 OD450 nm
OD450 nm [2]: 0.05 OD450 nm
OD450 nm [3]: 0.05 OD450 nm
OD450 nm [4]: 0.06 OD450 nm
OD450 nm [5]: 0.05 OD450 nm
OD450 nm [6]: 0.05 OD450 nm
OD450 nm [7]: 0.05 OD450 nm

B2: F1.42.8 (antibody, human IgG1, kappa, V domains shown)
VH: HVQLQQPGAELVKPGASVKLSCKASGYTFTSYWMHWVRQRPGQGLEWIEMIHPNSGSTNYNEKFKSKATLTVDKSSSTAYMQLSSLTSEDSAVYYCARGNYNSSLYAMDYWGQGTSVTVSS
VL: DIQMTQTTSSLSASLGDRVTISCSASQGISNYLNWYQQKPDGTVKLLIYYASNLHSGVPSRFSGSGSGTAYSLTISNLEPEDIATYYCQQYSILPYTFGGGTKLEIKR
notes: as for B1
OD450 nm [1]: 0.05 OD450 nm
OD450 nm [2]: 0.05 OD450 nm
OD450 nm [3]: 0.05 OD450 nm
OD450 nm [4]: 0.06 OD450 nm
OD450 nm [5]: 0.05 OD450 nm
OD450 nm [6]: 0.05 OD450 nm
OD450 nm [7]: 0.05 OD450 nm

B3: F1.57.21 (antibody, human IgG1, kappa, V domains shown)
VH: QVQLQQSGAELARPGASVKLSCKASGYTFTSYGISWVKQITGQGLEWIGEIYPRSESTYYNEKFKGKATLTADKSSSTAYMELRSLTSEDSAVYFCARDYGNIYSFAYWGQGTLVTVSA
VL: DIQMTQSPASLSASVGETVTITCRTSENIYSYLAWYQQKQGKSPQLLVYNAKTLAEGVPSRFSGSGSGTQFSLKINSLQPEDFGSYYCQHHYGTPLTFGAGTKLELKR
notes: as for B1
OD450 nm [1]: 0.05 OD450 nm
OD450 nm [2]: 0.05 OD450 nm
OD450 nm [3]: 0.05 OD450 nm
OD450 nm [4]: 0.06 OD450 nm
OD450 nm [5]: 0.05 OD450 nm
OD450 nm [6]: 0.05 OD450 nm
OD450 nm [7]: 0.05 OD450 nm

B4: F1.73.9 (antibody, human IgG1, kappa, V domains shown)
VH: QVQLKQSGAELVRPGASVKLSCKASGYTFTDYYINWVKQRPGQGLEWIARIYPGSGNTYYNEKFKGKATLTAEKSSSTAYMQFSSLTSEDSAVYFCACSTYYTMDYWGQGTSVTVSS
VL: QIVLTQSPAIMSASLGERVTMTCTASSGVSSSYLHWYQQKPGSSPKLWIYTTSNLASGVPARFSGSGSGTSYSLTISSMEAEDAATYYCHQYHRSPYTFGGGTKLEIKR
notes: as for B1
OD450 nm [1]: 0.05 OD450 nm
OD450 nm [2]: 0.05 OD450 nm
OD450 nm [3]: 0.05 OD450 nm
OD450 nm [4]: 0.09 OD450 nm
OD450 nm [5]: 0.05 OD450 nm
OD450 nm [6]: 0.05 OD450 nm
OD450 nm [7]: 0.04 OD450 nm

B5: F1.78.24 (antibody, human IgG1, kappa, V domains shown)
VH: QVQLQQSGAELVKPGASVKMSCKASGYTFTTYPIEWMKQNHGKSLEWIGNFHPYNDDTNYNVKFKGKATLTVEKSSSTVYLELSRLTSDDSALYYCARRREYYGSFDVWGTGTTVTVSS
VL: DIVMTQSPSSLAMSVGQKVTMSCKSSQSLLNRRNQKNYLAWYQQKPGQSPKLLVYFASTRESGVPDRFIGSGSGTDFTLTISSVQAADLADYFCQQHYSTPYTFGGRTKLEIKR
notes: as for B1
OD450 nm [1]: 0.05 OD450 nm
OD450 nm [2]: 0.05 OD450 nm
OD450 nm [3]: 0.05 OD450 nm
OD450 nm [4]: 0.06 OD450 nm
OD450 nm [5]: 0.05 OD450 nm
OD450 nm [6]: 0.05 OD450 nm
OD450 nm [7]: 0.05 OD450 nm

B6: F1.83.6 (antibody, human IgG1, kappa, V domains shown)
VH: QVQLQQSGPELVKPGASVKISCKASGYAFSSSWMNWVKQRPGKGLEWIGRIYPGDGDTNYNGRFKGKATLTVDKSSSTAYMQLSSLTSEDSAVYFCARGGVFTMALDHWGQGTTLTVSS
VL: DIQMTQSPSSLSASLGGKVTITCKASQDINKYIAWYQHKPGKGPRLLIHYTSTLQPGIPSRFSGSGSGRDYSFSISNLEPEDIATYYCLQYDNLFTFGGGTKLEIKR
notes: as for B1
OD450 nm [1]: 0.05 OD450 nm
OD450 nm [2]: 0.06 OD450 nm
OD450 nm [3]: 0.05 OD450 nm
OD450 nm [4]: 0.07 OD450 nm
OD450 nm [5]: 0.05 OD450 nm
OD450 nm [6]: 0.05 OD450 nm
OD450 nm [7]: 0.04 OD450 nm

B7: F1.92.17 (antibody, human IgG1, kappa, V domains shown)
VH: EVQLQQSGPELVKPGASVKMSCKASGYTFTDYNMHWVRQSHGKSLEWIGYINPNNGDTIYNQNFKGKATLTVNKSSSTAYMELRSLTSEDSAVYYCSRTITYYYSMDYWGPGTSVTVSS
VL: QIVLTQSPALMSASPGEKVTMTCSASSSVSYMYWYQQKPRSSPKPWIYLTSNLASGVPARFSGSGSGTSYSLTISSMEAEDAATYYCQQWSSNPLTFGAGTKLELKR
notes: as for B1
OD450 nm [1]: 0.05 OD450 nm
OD450 nm [2]: 0.06 OD450 nm
OD450 nm [3]: 0.06 OD450 nm
OD450 nm [4]: 0.1 OD450 nm
OD450 nm [5]: 0.05 OD450 nm
OD450 nm [6]: 0.05 OD450 nm
OD450 nm [7]: 0.05 OD450 nm

B8: F1.110.24 (antibody, human IgG1, kappa, V domains shown)
VH: EVKLVESGGGLVQPGGSLKLSCAASGFTFSDFYMYWVRQTPEKRLEWVAFISNGGGSTYYPDTVKGRFTISRDNVKNTLYLQMSRLKSEDTAMYYCARPDTSWFAYWGQGSLVTVSA
VL: DIQMTQTTSSLSASLGDRVTISCRASQDIDNYLNWYQQKPDGTVKVLISYTSRLHSGVPSRFSGSGSGTDYSLTISNLEQEDIATYFCQQGNTLPWTFGGGTKLEIKR
notes: as for B1
OD450 nm [1]: 0.04 OD450 nm
OD450 nm [2]: 0.07 OD450 nm
OD450 nm [3]: 0.05 OD450 nm
OD450 nm [4]: 0.06 OD450 nm
OD450 nm [5]: 0.05 OD450 nm
OD450 nm [6]: 0.05 OD450 nm
OD450 nm [7]: 0.04 OD450 nm

Further lines, results first:

OD450 nm [1]: 0.08 OD450 nm
OD450 nm [2]: 0.05 OD450 nm
OD450 nm [3]: 0.05 OD450 nm
OD450 nm [4]: 0.1 OD450 nm
OD450 nm [5]: 0.04 OD450 nm
OD450 nm [6]: 0.05 OD450 nm
OD450 nm [7]: 0.05 OD450 nm
B9: F1.115.8 (antibody, human IgG1, kappa, V domains shown)
VH: EVQLQQSGPELVKPGASVKMSCKASGYTFTEYYMHWVKQSHGKSLEWIGYIYPNNGGNGYNQKFKGKATLTVDKSSSTAYMGLRSLTSEDSAVYYCVRGYYSNWYFDVWGTGTTVTVSS
VL: DVLMTQTPLSLPVSLGDQASISCRSSQSIVHSNGKTYLEWYLQKPGQSPKLLIYKVSNRFSGVPDRFSGSGSGTDFTLKISRVEAEDLGVYYCFQGSHVPFTFGSGTKLEIKR
notes: as for B1

OD450 nm [1]: 0.04 OD450 nm
OD450 nm [2]: 0.05 OD450 nm
OD450 nm [3]: 0.04 OD450 nm
OD450 nm [4]: 0.06 OD450 nm
OD450 nm [5]: 0.04 OD450 nm
OD450 nm [6]: 0.04 OD450 nm
OD450 nm [7]: 0.05 OD450 nm
B10: F1.118.4 (antibody, human IgG1, kappa, V domains shown)
VH: QVQLQQSGAELAKPGASVKLSCKASGYSFTSYWIHWVKQRPGQGLEWIGYINPSSGYTKYNQKFKDKATLTADKSSSTAYMQLSSLTYEDSAVYYCARFGSSSFYFDYWGQGTTLTVSS
VL: DIVLTQSPASLAVSLGQRATISCRASQSVSSSSYSYMHWYQQKPGQPPKLLIKYASNLDSGVPARFSGSGSGTDFTLNIHPVEEEDTATYYCQHSWEIPAFGGGTKLEIKR
notes: as for B1

OD450 nm [1]: 0.04 OD450 nm
OD450 nm [2]: 0.06 OD450 nm
OD450 nm [3]: 0.04 OD450 nm
OD450 nm [4]: 0.08 OD450 nm
OD450 nm [5]: 0.04 OD450 nm
OD450 nm [6]: 0.04 OD450 nm
OD450 nm [7]: 0.05 OD450 nm
B11: F1.120.16 (antibody, human IgG1, kappa, V domains shown)
VH: EFQLQQSGPELVKPGASVKISCKASGYSFTDYNMNWVKQSNGKSLEWIGLIHPKFSVTSYNRKFKGKATLTVDQSSSTAYMQLNSLTSEDSAVYYCARWAGDYFDYWGQGTTLTVSS
VL: DIVLTQSPATLSVTPGDSVSLSCRASQSISNNLHWYQQKSHESPRLLIKYASQSISGIPSRFSGSGSGTDFTLTINSVETEDFGMYFCQQSNSWPQTFGGGTKLEIKR
notes: as for B1

OD450 nm [1]: 0.04 OD450 nm
OD450 nm [2]: 0.04 OD450 nm
OD450 nm [3]: 0.04 OD450 nm
OD450 nm [4]: 0.08 OD450 nm
OD450 nm [5]: 0.04 OD450 nm
OD450 nm [6]: 0.04 OD450 nm
OD450 nm [7]: 0.05 OD450 nm
B12: F1.136.7 (antibody, human IgG1, kappa, V domains shown)
VH: EVQLQQSGPVMVKPGPSVKISCQTSGFTFTDYYIHWVKQSHGKSLEWIGLVFPYDGGTNYNQKFKDKATLTLDTSSSTAYMELNSLTSEDSAVYYCARAGGFSYALNYWGQGTSVTVSS
VL: DIQMTQSPSSLSASLGGKVTITCKASQDINNYIAWYQHKPGKGPRLLIHFTSTLQPGIPSRFSGSGSGRDYSFSISNLEPEDIATYYCLQYDNLLLTFGAGTKLELKR
notes: as for B1
